assay: yeast display, Sf9 membrane polyspecificity reagent, FACS + sequencing; frameworks hold sequencing errors
Outline: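 Using colony PCR, genes from sorted yeast display clones were amplified, then sequenced on MiSeq at 2 × 250 and filtered by CDR length. The clones had been stained with 10% biotinylated, detergent-solubilized Sf9 membrane reagent for 1 hour at 4 °C and sorted by FACS into low and high (top ~1%) gates on anti-HA and streptavidin fluorescence. Polyreactivity labels come from the gate of origin.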

Row | Sequence | polyreactivity (PSR sort gate)
1 | QVQLVESGGGLVQAGGSLRLSCAASGFIFYDYAMGWYRQAPGKERELVAGITDSGGSTSYADSVKGRFTISRDNAKNTVYLHMNSLKPEDTAVYYCAADNYVRAGINYDYWGQGTQVTVSS | low polyreactivity
2 | QVQLVESGGGLVQAGGSLRLSCAASGFIFYDYAMGWYRQAPGKERELVAVITSGGSTYYADSVKGRFTISRDNAKNTVYLQMNSLKPEDTAVYYCNADWVFTWYDYPNDKYDYWGQGTQVTVSS | low polyreactivity
3 | QVQLVESGGGLVQAGGSLRLSCAASGFIFYEYAMGWYRQAPGKERELVAAITSGGSTDYADSVKGRFTISRDNANNTVYLQMNSLKPEDTAVYYCNADLFTGYYWYNYWGQGTQVTVSS | low polyreactivity
4 | QVQLVESGGGLVQAGGSLRLSCAASGFIFYGNAMGWYRQAPGKERELVAAITRRGGRTYYADSVKGRFTISRDNAKNTVYLQMNSLKPEDTAVYYCAKDRGRSLEMDYWGQGTQVTVSS | high polyreactivity
5 | QVQLVESGGGLVQAGGSLRLSCAASGFIFYGYDMGWYRQAPGKETELVASISVRGGDTYYADSVKGRFTISRDNAKNTVYLQMNSLKPEDTAVYDCNAEGYPGRFSYGVVYGDVGYDYWGQGTQVTVSS | low polyreactivity
6 | QVQLVESGGGLVQAGGSLRLSCAASGFIFYIYAMGWYRQAPGKERELVAAISWNGGSTYYADSVKGRFTISRDNAKNTVYLQMNSLKPEDTAVYYCATLARYRYGTGRFDYCGQGTQVTVSS | high polyreactivity
7 | QVQLVESGGGLVQAGGSLRLSCAASGFIFYKNAMGWYRQAPGKERELVAAINFSTGRTYYADSVKGRFTISRDNAKNTVYLQMNSLKPEDTAVYDCATKSANPRKYYYWGQVTQVTVSS | high polyreactivity
8 | QVQLVESGGGLVQAGGSLRLSCAASGFIFYKNAMGWYRQAPGKERELVAAITQRGGRTYYADSVKGRFTISRDNSKNTVYLQMNSLKPEDTAVYYCAAKALYGKQAWRYNYWGQGTQVTVSS | high polyreactivity
9 | QVQLVESGGGLVQAGGSLRLSCAASGFIFYKYTMGWYRQAPGKERELVAAISTSGGRTYYADSVKGRFTISRDNAKNTVYLQMNSLKPEDTAVYYCAAQYSYPYYKVTLYYWGQGTQVTVSS | high polyreactivity
10 | QVQLVESGGGLVQAGGSLRLSCAASGFIFYLYARGWYRQAPGKERELVAAITRRGGSTYYADSVKGRFTISRDIAKNTFYLQMNSLKPEDTAVYYCAADHYGFFSAGDFDYWGQGTQVTVSS | high polyreactivity
11 | QVQLVESGGGLVQAGGSLRLSCAASGFIFYLYTMGWYRQAPGTEMEVVAAITQSGTRTYYADSVKGRFTISRDNAKNTVYLQMNSLKPVDTAVYYCAAEWGSSYRWGMDYWGQGTQVTVSS | high polyreactivity
12 | QVQLVESGGGLVQAGGSLRLSCAASGFIFYNYAMGWYRQAPGKERELVAAITGGGSTNYADSVKGRFTISRDNAKNTVYLQMNSLKPEDTAVYYCAAEEGPPWSRYDYWGQGTQVTVSS | low polyreactivity
13 | QVQLVESGGGLVQAGGSLRLSCAASGFIFYPYAMGWYRQAPGKERELVASIYSGGRTYYADSVKGRFTISRDNAKHTVYLQMNSLKPEDTAVYYCNARSRYFGYDYWGQGTQVTVSS | high polyreactivity
14 | QVQLVESGGGLVQAGGSLRLSCAASGFIFYPYAMGWYRQAPGKERELVASIYSGGRTYYADSVKGRFTISRDNAKNTVYLQMNSLKPEDTAVYYCNARSRYFGYDYWGQGTQVTVSS | high polyreactivity
15 | QVQLVESGGGLVQAGGSLRLSCAASGFIFYPYAMGWYRQAPGKERELVAVITSGGRTYYADSVKGRFTISRDNAKNTVYLQMNSLKPEDTAVYYCAARYGSIHWKANWPEYGYWGQGTQVTVSS | low polyreactivity
16 | QVQLVESGGGLVQAGGSLRLSCAASGFIFYPYAMGWYRQATGKETELVAAITWSGGTTTYADSEKGRFTISRDNAKNTVYLQMNSLKPEDTAVYSCAALWYYGRYPYDYWGQGTQVTVSS | high polyreactivity
17 | QVQLVESGGGLVQAGGSLRLSCAASGFIFYQYAMGWYRQAPGKERELVAAISRSGGSTYYADSVKGRFTISRDNAKNTVYLQMNSLKPEDTAVYYCNAVYRSIRPRYDYWGQGTQVTVSS | high polyreactivity
18 | QVQLVESGGGLVQAGGSLRLSCAASGFIFYRNAMGWYRQAPGKERELVAAISQRGGRTYADSVKGRFTISRDNAKNTVYLQMNSLKPEDTAFYYCAADGARLSQTTRRFDYWGQGTQVTVSS | low polyreactivity
19 | QVQLVESGGGLVQAGGSLRLSCAASGFIFYRNTMGWYRQAPGKERELVAANSVSGGSTNYADSVKGRFTISRDNAKNTVYLQMNSLKPEDSAVYYCAARVRDSLVYGGWDDYWGQGTQVTVSS | high polyreactivity
20 | QVQLVESGGGLVQAGGSLRLSCAASGFIFYRYAKGWYRQPPGKERELVAAITKSGTSTYYADSVKGRFTISRDNAKNTVYLQMNSLKPEDTAVYYCNADVRSRSRGSSGYDYWGQGTQVTVSS | low polyreactivity
21 | QVQLVESGGGLVQAGGSLRLSCAASGFIFYRYAMGWYRPAPGKERELVAAISRSGGTTYYADSVKGRFTISRDNAKNTVYLQMNSLKPEETAVYYCAAVGTVSRTVGYKYWGQGTQVTVSS | high polyreactivity
22 | QVQLVESGGGLVQAGGSLRLSCAASGFIFYRYAMGWYRQAPGKERELVAAISSSGGSTYYADSVKGRFTISRDNAKNTVYLQMNSLKPEDTAVYYCAAEPSGKRSKFYYWGQGTQVTVSS | high polyreactivity

Row | Sequence | polyreactivity (PSR sort gate)
23 | QVQLVESGGGLVQAGGSLRLSCAASGFIFYRYAMGWYRQAPGKERELVAAITGGGSTYYADSVKGRFTISRDNAKNNFYLQMNSLKPEDTAVYYCAARKRYWFTPYDYWGQGTQVTVSS | high polyreactivity
24 | QVQLVESGGGLVQAGGSLRLSCAASGFIFYRYAMGWYRQAPGKERELVASITRSGGSTYYADSVKGRFTISRDNAKNTVYLQMNCLKPEDTAVYYCAADRYLGTYRYRYDYWGQGTQVTVSS | high polyreactivity
25 | QVQLVESGGGLVQAGGSLRLSCAASGFIFYRYLMGWYRQAPGKERELVAAISRSGDRTYYADSVKGRFTISRDNAKNTVYLQMNSLKPEDTAVYDCAAALYYFSRGYWGQGTQVTVSS | high polyreactivity
26 | QVQLVESGGGLVQAGGSLRLSCAASGFIFYSNAMGSYRQAPGKERELVASITGDGGTTYYADSVKGRFTISRDNAKTTGYLEMNSLKPEDTAVYYCAKDYIYRGYYTDFRYEDYDYWGQGTQVTVSS | low polyreactivity
27 | QVQLVESGGGLVQAGGSLRLSCAASGFIFYSNAMGWYSQAPGKVRELVAAISRGGGSTYYADSVKGRFTISRDNAKNTVYLQMNSLKPEDTAVYYCAKRRLSPQDDYWGQGTQVTLSS | high polyreactivity
28 | QVQLVESGGGLVQAGGSLRLSCAASGFIFYSYTMGWYRQAPGKERELVATISSNGGRTYYADSVKGRFTISRDNAKNTVYLQMNSLKPEDTAVYYCATDVPHGYYWSYGDYYWGQGTQVTVSS | low polyreactivity
29 | QVQLVESGGGLVQAGGSLRLSCAASGFIFYTYTRGWSRQAHGKERELVAAISYSGGRTYSADSVKGRFTISRDNAKNTVYLQMNSLKPEDTAVYYCAARRYYNSVANENNYWGQGTQVTVSS | high polyreactivity
30 | QVQLVESGGGLVQAGGSLRLSCAASGFIFYYAMGWYRPAPGKERELVAGITESDGSTNYADSVKGRFTISRDNAKNTVYLQMNSLKPEDTAVYYCAKDASSLRFDYWGQGTQVTVSS | low polyreactivity
31 | QVQLVESGGGLVQAGGSLRLSCAASGFIFYYAMGWYRQAPVKERELVAAISRGGSTNYADSVKGRFTISRDNAKNTVYLQMNSLKPEDTAVYYCNARVYSSRARWGTYDYWGQGTQVTVSS | high polyreactivity
32 | QVQLVESGGGLVQAGGSLRLSCAASGFIFYYNAMGWYRQAPGKERELVAAISTDGGSTYYADSVKGRFTISRDNAKNTVYLQMNSLNPEDTAVYYCAAKRYKRYDYWGQGTQVTVSS | low polyreactivity
33 | QVQLVESGGGLVQAGGSLRLSCAASGFIFYYNAMGWYRQAPGKERELVAAITRSGGSTFYADSVKGRFTISRDNAKNTVYLQMNSLKPEDTAVYYCAAKGNPYRVPGSSYPKVNYWGQGTQVTVSS | high polyreactivity
34 | QVQLVESGGGLVQAGGSLRLSCAASGFIFYYNAMGWYRQAPGKERELVATIRGSGGSTYYADSVKGRFTISRDNAKNTVYLQMNSLKPEDTAVYYCATTIYGLTSRLYYWGQGTQVTVSS | high polyreactivity
35 | QVQLVESGGGLVQAGGSLRLSCAASGFIFYYNTMGWYRQAPGKERELVAAINSGGSTYYADSVKGRFTISRDNAKNTVYLQMNSLKPEDTAVYYCAKRYAVSSRYYYWGQGTQVTVSS | high polyreactivity
36 | QVQLVESGGGLVQAGGSLRLSCAASGFIFYYNTMVWYRQAPGKERELVASITWSGDTTYYADSVKGRFTISRDNAKNTVYLQMNSLKPEDTAVYYCAAVHYYPYRRYDYWGQGTQVTVSS | low polyreactivity
37 | QVQLVESGGGLVQAGGSLRLSCAASGFIFYYYAMGWYRQAPGKERELVAAISKSGGSTYYADSVKGRFTISRDNAKKTVYLQMNSLIPEDTAVYYCAAVVTTWPYYGFGYWGQGTQVTVSS | high polyreactivity
38 | QVQLVESGGGLVQAGGSLRLSCAASGFIFYYYAMGWYRQAPGKERELVAAISSGDDTTYADSVKGRFTISRDNAKNTVYLKMNSLKPEDTAVYYCNSERSVKQQGPYGYWGQGTQVTVSS | low polyreactivity
39 | QVQLVESGGGLVQAGGSLRLSCAASGFIFYYYAMGWYRQAPGKERELVAAISWSGGSTYYADSVKGRFTISRDNAKNTVYLQMNSLKPEDTAVYDCAVSRDSYGGKGSFLYDYWGQGTQVTVSS | low polyreactivity
40 | QVQLVESGGGLVQAGGSLRLSCAASGFIFYYYAMGWYRQAPGKERELVAGITATGGSTYYEDSVKGRFTISRDNAKNTVYLQMNSLKPEDTAVYYCAAEHGRRATYTWWVIYDYWGQGTQVTVSS | low polyreactivity
41 | QVQLVESGGGLVQAGGSLRLSCAASGFIFYYYAMGWYRQAPGKERELVARISRVGSTYYADSVKGRFTISRDNAKNTVYLQINSLKPEDTAVYYCAKVSIARIKTRYNYWGQATQVTVSS | high polyreactivity
42 | QVQLVESGGGLVQAGGSLRLSCAASGFIGIYAMGWYRQAPGKERELVAAITTSGGRTYYADSVKGRFTISRDNAKNTVYLQMNSLKPEDTAVYYCAADYQAYTAEDKVIVWYDYWGQGTQVTVSS | low polyreactivity
43 | QVQLVESGGGLVQAGGSLRLSCAASGFIGSNTMGWYRQAPGKERELVAAISWSGGSTYYADSVKGRFTISRDNAKNTVYLQMNSLKPEDTAVYYSAARRNSRARRTFGYWGQGTQVTVSS | high polyreactivity
